Consider six molecules from patent US20100306864A1 (OTSUKA CHEMICAL, published 2010).

T1: CD20 (on Daudi cells) (human, UniProt P11836 1-297)
T1 construct: whole, on cells; The target is the CD20 naturally present on Daudi cells; also called antigen
T1 sequence (looked up): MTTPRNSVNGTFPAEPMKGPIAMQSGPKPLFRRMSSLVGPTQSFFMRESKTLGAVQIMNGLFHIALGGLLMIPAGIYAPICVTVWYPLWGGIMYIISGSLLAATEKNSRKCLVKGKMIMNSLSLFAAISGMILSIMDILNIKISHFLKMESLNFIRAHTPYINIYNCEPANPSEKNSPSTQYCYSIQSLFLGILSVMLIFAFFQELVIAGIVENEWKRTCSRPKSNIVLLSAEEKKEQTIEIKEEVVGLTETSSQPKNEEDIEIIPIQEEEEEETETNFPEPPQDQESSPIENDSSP

B1: anti-CD20 chimera antibody (wild type) (antibody, human IgG1, kappa)
heavy: not shown
light: QIVLSQSPAILSASPGEKVTMTCRASSSVSYMHWYQQKPGSSPKPWIYAPSNLASGVPARFSGSGSGTSYSLTISRVEAEDAANYYCQQWSFNPPTFGAGTKLELKTVAAPSVFIFPPSDEQLKSGTASVVCLLNNFYPREAKVQWKVDNALQSGNSQESVTEQDSKDSTYSLSSTLTLSKADYEKHKVYACEVTHQGLSSPVTKSFNRGEC
notes: Mouse anti-CD20 variable regions joined to human IgG1 H chain and human L chain constant regions; also called wild type antibody; wild type anti-CD20 chimera antibody; copies: 2 + 2
B2: anti-CD20 chimera antibody H chain constant region amino acid mutant Glu294Cys (antibody, human IgG1, kappa)
heavy: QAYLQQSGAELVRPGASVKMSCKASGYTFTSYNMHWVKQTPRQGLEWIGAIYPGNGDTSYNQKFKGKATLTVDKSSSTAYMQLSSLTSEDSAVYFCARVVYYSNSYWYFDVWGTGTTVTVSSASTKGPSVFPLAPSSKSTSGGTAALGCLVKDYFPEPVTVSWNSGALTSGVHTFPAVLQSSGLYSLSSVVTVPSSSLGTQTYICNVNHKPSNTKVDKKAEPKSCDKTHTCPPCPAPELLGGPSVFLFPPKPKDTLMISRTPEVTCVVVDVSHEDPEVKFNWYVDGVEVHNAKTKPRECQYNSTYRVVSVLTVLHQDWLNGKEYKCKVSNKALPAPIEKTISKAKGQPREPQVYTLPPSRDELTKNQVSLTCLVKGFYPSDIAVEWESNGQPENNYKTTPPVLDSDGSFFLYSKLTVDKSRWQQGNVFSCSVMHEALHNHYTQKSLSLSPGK
light: B1 light
notes: H chain entry already carries Glu294Cys (Kabat EU index); also called Glu294Cys-modified antibody
B3: anti-CD20 chimera antibody H chain constant region amino acid mutant Tyr300Cys (antibody, human IgG1, kappa)
heavy: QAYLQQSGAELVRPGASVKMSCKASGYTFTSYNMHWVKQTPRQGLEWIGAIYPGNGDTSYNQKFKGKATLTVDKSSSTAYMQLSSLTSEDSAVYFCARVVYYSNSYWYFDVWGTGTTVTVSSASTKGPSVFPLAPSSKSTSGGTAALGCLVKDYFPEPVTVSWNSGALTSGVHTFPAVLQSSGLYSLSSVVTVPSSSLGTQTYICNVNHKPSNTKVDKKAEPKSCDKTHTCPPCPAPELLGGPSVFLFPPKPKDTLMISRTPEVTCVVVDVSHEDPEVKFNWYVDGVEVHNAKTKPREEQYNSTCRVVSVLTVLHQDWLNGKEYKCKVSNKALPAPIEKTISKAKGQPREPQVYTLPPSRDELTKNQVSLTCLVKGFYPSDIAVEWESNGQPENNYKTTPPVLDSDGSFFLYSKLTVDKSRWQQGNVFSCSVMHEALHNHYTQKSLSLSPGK
light: B1 light
notes: H chain entry already carries Tyr300Cys (Kabat EU index); also called Tyr300Cys-modified antibody
B4: anti-CD20 chimera antibody H chain constant region amino acid mutant Ser298Cys (antibody, human IgG1, kappa)
heavy: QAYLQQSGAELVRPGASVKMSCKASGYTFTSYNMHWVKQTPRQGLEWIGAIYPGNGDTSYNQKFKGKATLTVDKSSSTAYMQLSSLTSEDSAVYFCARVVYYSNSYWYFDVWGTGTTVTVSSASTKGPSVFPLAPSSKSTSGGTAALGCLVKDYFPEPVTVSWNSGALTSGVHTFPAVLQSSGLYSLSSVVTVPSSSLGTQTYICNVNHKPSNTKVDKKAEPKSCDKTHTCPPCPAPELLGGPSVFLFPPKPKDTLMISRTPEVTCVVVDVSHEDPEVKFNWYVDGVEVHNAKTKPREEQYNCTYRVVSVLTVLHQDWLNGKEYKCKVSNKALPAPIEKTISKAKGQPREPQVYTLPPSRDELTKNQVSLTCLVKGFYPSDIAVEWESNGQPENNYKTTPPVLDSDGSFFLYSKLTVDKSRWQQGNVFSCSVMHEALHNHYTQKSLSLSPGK
light: B1 light
notes: H chain entry already carries Ser298Cys (Kabat EU index); also called Ser298Cys mutant; Ser298Cys-modified antibody; copies: 2 + 2
B5: anti-CD20 chimera antibody H chain constant region amino acid mutant Glu293Cys (antibody, human IgG1, kappa)
heavy: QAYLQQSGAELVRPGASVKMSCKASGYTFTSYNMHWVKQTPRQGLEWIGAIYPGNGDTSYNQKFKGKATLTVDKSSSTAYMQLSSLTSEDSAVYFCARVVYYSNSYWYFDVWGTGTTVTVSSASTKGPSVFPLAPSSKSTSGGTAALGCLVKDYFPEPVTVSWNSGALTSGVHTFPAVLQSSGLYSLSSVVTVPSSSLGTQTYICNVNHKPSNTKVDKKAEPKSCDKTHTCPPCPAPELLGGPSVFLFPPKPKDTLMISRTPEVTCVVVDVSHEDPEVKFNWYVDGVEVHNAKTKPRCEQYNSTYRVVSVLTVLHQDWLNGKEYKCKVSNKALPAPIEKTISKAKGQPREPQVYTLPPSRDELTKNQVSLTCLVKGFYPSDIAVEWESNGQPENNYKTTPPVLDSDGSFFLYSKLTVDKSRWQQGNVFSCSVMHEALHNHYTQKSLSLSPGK
light: B1 light
notes: H chain entry already carries Glu293Cys (Kabat EU index); also called Glu293Cys-modified antibody
B6: anti-CD20 chimera antibody H chain constant region amino acid mutant Tyr296Cys (antibody, human IgG1, kappa)
heavy: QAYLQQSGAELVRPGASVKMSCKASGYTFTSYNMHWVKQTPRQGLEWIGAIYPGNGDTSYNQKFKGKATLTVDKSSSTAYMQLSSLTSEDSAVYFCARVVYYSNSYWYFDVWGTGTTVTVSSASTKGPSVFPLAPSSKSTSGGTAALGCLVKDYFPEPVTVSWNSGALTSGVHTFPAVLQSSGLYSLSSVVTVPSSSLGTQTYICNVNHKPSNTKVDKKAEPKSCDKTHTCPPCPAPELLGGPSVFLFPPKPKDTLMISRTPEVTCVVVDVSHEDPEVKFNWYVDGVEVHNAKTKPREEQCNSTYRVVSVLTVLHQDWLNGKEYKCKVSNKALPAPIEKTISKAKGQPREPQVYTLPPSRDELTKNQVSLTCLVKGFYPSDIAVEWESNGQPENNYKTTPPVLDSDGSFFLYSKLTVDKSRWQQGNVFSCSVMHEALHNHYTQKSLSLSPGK
light: B1 light
notes: H chain entry already carries Tyr296Cys (Kabat EU index); also called Tyr296Cys mutant; Tyr296Cys-modified antibody; copies: 2 + 2

The first assay deals with T1, CD20 (on Daudi cells). Nature of the assay: cell ELISA on Daudi cells, HRP anti-human IgG, OD450. As for the experimental part: Daudi cells (ATCC catalog No. CCL-213) were dispensed into a 96 well plate at a density of 6×10⁴ cells/well, each of the antibody mutants (Glu293Cys, Glu294Cys, Tyr296Cys, Ser298Cys, or Tyr300Cys) obtained in Example 1 or wild type antibody was added thereto, and a reaction was carried out at 4° C. for 1 hour. Following this, washing was carried out with 3 mM EDTA-0.5% BSA-PBS(−) (washing buffer). Subsequently, 50 μL/well of an HRP-labeled anti-human IgG antibody (Zymed) diluted 500 times with the washing buffer was added, and a reaction was carried out at 4° C. for 1 hour. Cells after the reaction were washed with the washing buffer, 100 μL/well of TMB substrate (KPL) was added thereto so as to cause coloration, the reaction was stopped by adding 100 μL/well of 1 M HCl (Wako), and the OD value at 450 nm was measured using a plate reader (VersaMax, Molecular Devices).
Background: ELISA stands for enzyme-linked immunosorbent assay.
Turning to B1, the binding result is recorded as “binds”. On to B2, for which the binding result was “binds”. Regarding B3, the binding result was “binds”.

Take B4: the binding result is “binds”.

Consider B5, for which the binding result was “binds”.

In the case of B6, the binding result is reported as “binds”.

The target of the next assay is T2, CD16 (NK cell Fcy receptor III), expressed on CHO-K1 cells (human, UniProt P08637 17-254).
T2 construct: whole, on cells; also called CD16-expressing CHO-K1 cells
T2 sequence (P08637 17-254): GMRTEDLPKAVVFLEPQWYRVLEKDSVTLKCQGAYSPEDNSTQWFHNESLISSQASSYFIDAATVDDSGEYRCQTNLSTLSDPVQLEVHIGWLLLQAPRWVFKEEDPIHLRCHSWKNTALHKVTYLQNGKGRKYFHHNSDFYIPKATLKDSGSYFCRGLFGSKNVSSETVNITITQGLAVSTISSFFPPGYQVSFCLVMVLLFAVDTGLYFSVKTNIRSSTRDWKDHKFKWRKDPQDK
Put plainly: flow cytometry on CD16-expressing CHO-K1 cells; biotin anti-human IgG kappa L chain antibody and PE-streptavidin. As for the experimental part:
CD16-expressing CHO-K1 cells were taken at 6×10⁴ cells/tube, each of the antibody mutants obtained in Example (Tyr296Cys or Ser298Cys) or wild type antibody was added thereto to give a total amount of 50 μL/tube, and a reaction was carried out at 4° C. for 1 hour. Following this, washing was carried out with 3 mM EDTA-0.5% BSA-PBS(−) (washing buffer). Subsequently, a biotin-labeled mouse anti-human IgGκ L chain antibody (Vector Lab) diluted 200 times with the washing buffer was added at 100 μL/tube. After a reaction was carried out at 4° C. for 30 min, washing was carried out with 3 mM EDTA-0.5% BSA-PBS(−), PE-labeled streptavidin (BD-Pharmingen) diluted 400 times with the washing buffer was added at 100 μL/tube, and a reaction was carried out at 4° C. for 30 min. After the reaction was completed, washing was carried out twice with 3 mM EDTA-0.5% BSA-PBS(−), and a CD16-binding anti-CD20 antibody was analyzed using a flow cytometer (FACS Caliber, BecktonDickinson).
Background: A flow cytometer gives signals particle by particle.
Consider B4, for which the “CD16 binding activity relative to wild type (concentrations that gave the same effect)” value was ~10 times that of the wild type. For the molecule B6, the “CD16 binding activity relative to wild type (concentrations that gave the same effect)” value was ~5 times that of the wild type.
